Consider 34 sequences from the supplement of paper PMC10724198.

For this data set, the system named is Saccharomyces cerevisiae. Nature of the data set: protein stability index of tFT-peptide fusion (C-terminal peptide) (PSI (0-1 scale)); higher = more stable (slower turnover). The settings on record: temperature: 30 C. The procedure: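 MPS profiling in S. cerevisiae of the yeast C-terminome library: the last 12 aa of each annotated ORF are fused to the C-terminus of a sfGFP-mCherry timer, after a GGGS linker. Cells are FACS-sorted into 8 mCherry/sfGFP bins and deep-sequenced. PSI runs from 0 (unstable) to 1 (stable); wild type and das1Δ backgrounds, two technical replicates each.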

Setting [1] is: genetic background: das1 deletion.

± gives the standard deviation of the averaged measurements.

For the sequence VSIYKPYTEESE [WTM1 C-terminal 12 aa], the protein stability index by setting is: under setting [1], 0.662 ± 0.0069; (genetic background: wild type) 0.663 ± 0.027.
In the same order, the values of VSPYDYNHKRVS [DIB1 C-terminal 12 aa] are 0.69264 ± 0.00023 and 0.678 ± 0.035.
With VTRAAESLGFTV [MIP6 C-terminal 12 aa], the protein stability index reads like this: under setting [1], 0.6997 ± 0.0036; (genetic background: wild type) 0.69562 ± 4.2e-05.
Taken in the same sequence, the figures for VVAQKPKLPYTK [YBR225W C-terminal 12 aa] were 0.694 ± 0.026 and 0.725 ± 0.066.
In the same order, the values of VVNKYLKENGYY [APE2 C-terminal 12 aa] are 0.705 ± 0.02 and 0.6615 ± 0.0031.
In the same order, the values of VVVTGNLQILEH [UGP1 C-terminal 12 aa] are 0.678 ± 0.03 and 0.684 ± 0.019.
In the case of VYARDAAALRPV [SCS3 C-terminal 12 aa], the protein stability index is, setting by setting: under setting [1], 0.716 ± 0.021; (genetic background: wild type) 0.686 ± 0.03.
In the same order, the values of VYEVVCDSVRNW [MRX21 C-terminal 12 aa] are 0.692 ± 0.023 and 0.717 ± 0.0011.
VYEYIVNVNEYA [CPS1 C-terminal 12 aa]: the protein stability index stood at 0.6949 ± 0.0031 under setting [1] and 0.682 ± 0.0094 (genetic background: wild type).
In the same order, the values of WEHAMRSRRHKR [SWC3 C-terminal 12 aa] are 0.726 ± 0.0012 and 0.673 ± 0.027.
In turn, WEKFIELEKNYK [MST1 C-terminal 12 aa] displayed a protein stability index under setting [1] of 0.696 ± 0.0078 and a protein stability index (genetic background: wild type) of 0.799 ± 0.04.
Taken in the same sequence, the figures for “WHKHKTSSDKNI [YDR261C-D C-terminal 12 aa]” were 0.733 ± 0.02 and 0.749 ± 0.012.
In the same order, the values of WKLAKLQIDEAL [SNX41 C-terminal 12 aa] are 0.693 ± 0.0081 and 0.6896 ± 0.0063.
In the same order, the values of WLSKSGSSAALP [TOS1 C-terminal 12 aa] are 0.717 ± 0.014 and 0.685 ± 0.022.
As for “WQLVDNYESGYE [YGL194C-A C-terminal 12 aa]”, the protein stability index was 0.7087 ± 0.0048 under setting [1] and 0.648 ± 0.031 (genetic background: wild type).
In the same order, the values of WQTLVMILQESG [NPL4 C-terminal 12 aa] are 0.392 ± 0.0077 and 0.444 ± 0.021.
Taken in the same sequence, the figures for WTLLSRFLDREW [ATG36 C-terminal 12 aa] were 0.684 ± 0.015 and 0.6939 ± 0.0011.
In the same order, the values of WVDAFGIIYGAL [YIL108W C-terminal 12 aa] are 0.7436 ± 0.0063 and 0.7232 ± 0.0018.
In the case of YALKRNAFKLLK [CRD1 C-terminal 12 aa], the protein stability index is 0.682 ± 0.011 under setting [1] and 0.691 ± 0.02 (genetic background: wild type).
As to YDLEAGENKFNF [URA7 C-terminal 12 aa], the protein stability index was determined as 0.7022 ± 0.0022 under setting [1] and 0.703 ± 0.0099 (genetic background: wild type).
In the same order, the values of YEKVVELWNKVV [MNT4 C-terminal 12 aa] are 0.701 ± 0.018 and 0.199 ± 0.0098.
Taken in the same sequence, the figures for YEPTDWECTDAP [YJR096W C-terminal 12 aa] were 0.7254 ± 0.0027 and 0.708 ± 0.06.
In the same order, the values of YITTPSSSGHAL [YIL141W C-terminal 12 aa] are 0.716 ± 0.0081 and 0.674 ± 0.027.
YKIKKQPRKKQQ [HST1 C-terminal 12 aa]: the protein stability index came out at 0.739 ± 0.015 under setting [1] and 0.708 ± 0.081 (genetic background: wild type).
Consider YKLGPGEDTATK [DPL1 C-terminal 12 aa], for which the protein stability index by setting is: under setting [1], 0.707 ± 0.023; (genetic background: wild type) 0.702 ± 0.032.
Taken in the same sequence, the figures for YLALKWIVVEQK [ADP1 C-terminal 12 aa] were 0.521 ± 0.021 and 0.573 ± 0.018.
Taken in the same sequence, the figures for YLEHQQIHGRVV [YHR145C C-terminal 12 aa] were 0.679 ± 0.017 and 0.691 ± 0.013.
Take YLKNYFKTKHII [ERV25 C-terminal 12 aa]: the protein stability index is 0.702 ± 0.018 under setting [1] and 0.185 ± 0.0056 (genetic background: wild type).
In the same order, the values of “YLTFYKSPKTFY [YDR183C-A C-terminal 12 aa]” are 0.71 ± 0.037 and 0.637 ± 0.055.
Taken in the same sequence, the figures for “YNSDSGSYYTLM [YOR192C-C C-terminal 12 aa]” were 0.704 ± 0.017 and 0.731 ± 0.097.
Regarding YPGEAKRPQERF [COX10 C-terminal 12 aa], the protein stability index by setting is: under setting [1], 0.6898 ± 0.0058; (genetic background: wild type) 0.7 ± 0.047.
Taken in the same sequence, the figures for YSDTIWNVEPVT [GPH1 C-terminal 12 aa] were 0.729 ± 0.015 and 0.73 ± 0.018.
Take YSKHLKRLLPYH [MRP35 C-terminal 12 aa]: the protein stability index under setting [1] was found to be 0.6788 ± 0.0019 and the protein stability index (genetic background: wild type) is 0.712 ± 0.071.
In the same order, the values of YTNLIASKVKKQ [YKL177W C-terminal 12 aa] are 0.714 ± 0.036 and 0.6504 ± 0.0044.
